Measured values as given in US20220153796A1 (IMMATICS BIOTECHNOLOGIES, published 2022).

Target: HLA-B*07 (human)
Test: UV peptide exchange ELISA
From the text: (§1) Candidate peptides for T cell based therapies according to the present invention were further tested for their MHC binding capacity (affinity). The individual peptide-MHC complexes were produced by UV-ligand exchange, where a UV-sensitive peptide is cleaved upon UV-irradiation, and exchanged with the peptide of interest as analyzed. Only peptide candidates that can effectively bind and stabilize the peptide-receptive MHC molecules prevent dissociation of the MHC complexes. To determine the yield of the exchange reaction, an ELISA was performed based on the detection of the light chain (β2m) of stabilized MHC complexes. The assay was performed as generally described in Rodenko et al. (Rodenko et al., 2006).
(§2) 96 well MAXISorp plates (NUNC) were coated over night with 2 ug/ml streptavidin in PBS at room temperature, washed 4× and blocked for 1 h at 37° C. in 2% BSA containing blocking buffer. […] Peptide-MHC monomers of the UV-exchange reaction were diluted 100-fold in blocking buffer. Samples were incubated for 1 h at 37° C., washed four times, incubated with 2 ug/ml HRP conjugated anti-β2m for 1h at 37° C., washed again and detected with TMB solution that is stopped with […]. Absorption was measured at 450 nm.

Work on SAYPQRLEI yielded a peptide exchange yield of 10 to 20%.

Target: HLA-A*03 (human)
Test: UV peptide exchange ELISA
From the text: as §1, §2

KTLVAELLILK and KLYAWELAF fall in the same range of peptide exchange yield: 50 to 75% for the first, 50 to 75% for the second.

Target: HLA-A*02 (human)
Test: UV peptide exchange ELISA

Compared with ALCLLLHLL, LMAFFLAVV is higher in peptide exchange yield: 10 to 20% for the first, 20 to 50% for the second.

Target: HLA-A*01 (human)
Test: UV peptide exchange ELISA

VVDSVGGYLY and ASEQQALHTVQY cannot be ordered by peptide exchange yield: over 75% for the first, over 75% for the second.

First: WMFFVINY
Second: VTDGSLYEGVAY
The peptide exchange yield of the first is lower: 10 to 20% for the first, over 75% for the second.

First: ECDMAFHIY
Second: VVADTKMIEY
The peptide exchange yield of the first is higher: over 75% for the first, 10 to 20% for the second.

ATDLVVLDRY and NTDNNLAVY cannot be ordered by peptide exchange yield: over 75% for the first, over 75% for the second.
